The RNAGym collection of RNA variant scans (doi:10.1093/molbev/msab373)

B1: Azoarcus group I ribozyme (parent)
chain: GUGCCUUGCGCCGGGAAACCACGCAAGGGAUGGUGUCAAAUUCGGCGAAACCUAAGCGCCCGCCCGGGCGUAUGGCAACGCCGAGCCAAGCUUCGGCGCCUGCGCCGAUGAAGGUGUAGAGACUAGACGGCACCCACCUAAGGCAAACGCUAUGGUGAAGGCAUAGUCCAGGGAGUGGCGAAAGUCACACAAACCGG

Variants of: B1
Experiment: reverse-splicing fitness (ratio to wild type); higher = more active; in vitro selection; Mg2+ level not given
Procedure, shortened: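 An in vitro group I ribozyme library with randomized positions was T7-transcribed and gel-purified. In triplicate, 10 pmol RNA in EPPS pH 7.5 was reacted with 50 pmoles of a 30-nt RNA substrate for 1 h at 37 °C across several added MgCl2 levels (1–48 mM), then stopped with EDTA. Products were reverse transcribed from a substrate-complementary primer, PCR-amplified and sequenced (HiSeq 4000). Fitness is a variant's read proportion after selection over that before, normalised to wild type.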

Row | Variant | reverse-splicing fitness
1 | C82A A111C A120C C169G U176G | 0.00756
2 | C82A A111C A120C C169U | 0.0124
3 | C82A A111C A120C C169U U176A | 0.0152
4 | C82A A111C A120C C169U U176C | 0.0149
5 | C82A A111C A120C C169U U176G | 0.00697
6 | C82A A111C A120C U176A | 0.0134
7 | C82A A111C A120C U176C | 0.0216
8 | C82A A111C A120C U176G | 0.00722
9 | C82A A111C A120G | 0.0149
10 | C82A A111C A120G A145C | 0.0129
11 | C82A A111C A120G A145C C150A | 0.00818
12 | C82A A111C A120G A145C C150A C169A | 0.00794
13 | C82A A111C A120G A145C C150A C169A U176A | 0.01
14 | C82A A111C A120G A145C C150A C169A U176C | 0.00778
15 | C82A A111C A120G A145C C150A C169A U176G | 0.00603
16 | C82A A111C A120G A145C C150A C169G | 0.00754
17 | C82A A111C A120G A145C C150A C169G U176A | 0.0253
18 | C82A A111C A120G A145C C150A C169G U176C | 0.0145
19 | C82A A111C A120G A145C C150A C169G U176G | 0.00557
20 | C82A A111C A120G A145C C150A C169U | 0.00671
21 | C82A A111C A120G A145C C150A C169U U176A | 0.0142

Row | Variant | reverse-splicing fitness
22 | C82A A111C A120G A145C C150A C169U U176C | 0.00893
23 | C82A A111C A120G A145C C150A C169U U176G | 0.00495
24 | C82A A111C A120G A145C C150A U176A | 0.0103
25 | C82A A111C A120G A145C C150A U176C | 0.0105
26 | C82A A111C A120G A145C C150A U176G | 0.00559
27 | C82A A111C A120G A145C C150G | 0.00724
28 | C82A A111C A120G A145C C150G C169A | 0.00757
29 | C82A A111C A120G A145C C150G C169A U176A | 0.00786
30 | C82A A111C A120G A145C C150G C169A U176C | 0.00612
31 | C82A A111C A120G A145C C150G C169A U176G | 0.00531
32 | C82A A111C A120G A145C C150G C169G | 0.00683
33 | C82A A111C A120G A145C C150G C169G U176A | 0.00836
34 | C82A A111C A120G A145C C150G C169G U176C | 0.00766
35 | C82A A111C A120G A145C C150G C169G U176G | 0.00475
36 | C82A A111C A120G A145C C150G C169U | 0.00668
37 | C82A A111C A120G A145C C150G C169U U176A | 0.0089
38 | C82A A111C A120G A145C C150G C169U U176C | 0.0101
39 | C82A A111C A120G A145C C150G C169U U176G | 0.00551
40 | C82A A111C A120G A145C C150G U176A | 0.00683
41 | C82A A111C A120G A145C C150G U176C | 0.0141
42 | C82A A111C A120G A145C C150G U176G | 0.00311

Row | Variant | reverse-splicing fitness
43 | C82A A111C A120G A145C C150U | 0.00926
44 | C82A A111C A120G A145C C150U C169A | 0.00801
45 | C82A A111C A120G A145C C150U C169A U176A | 0.0112
46 | C82A A111C A120G A145C C150U C169A U176C | 0.00619
47 | C82A A111C A120G A145C C150U C169A U176G | 0.00632
48 | C82A A111C A120G A145C C150U C169G | 0.00775
49 | C82A A111C A120G A145C C150U C169G U176A | 0.0217
50 | C82A A111C A120G A145C C150U C169G U176C | 0.0133
51 | C82A A111C A120G A145C C150U C169G U176G | 0.00558
52 | C82A A111C A120G A145C C150U C169U | 0.00644
53 | C82A A111C A120G A145C C150U C169U U176A | 0.0143
54 | C82A A111C A120G A145C C150U C169U U176C | 0.00813
55 | C82A A111C A120G A145C C150U C169U U176G | 0.00482
56 | C82A A111C A120G A145C C150U U176A | 0.00894
57 | C82A A111C A120G A145C C150U U176C | 0.0119
58 | C82A A111C A120G A145C C150U U176G | 0.00502
59 | C82A A111C A120G A145C C169A | 0.00659
60 | C82A A111C A120G A145C C169A U176A | 0.00969
61 | C82A A111C A120G A145C C169A U176C | 0.00724
62 | C82A A111C A120G A145C C169A U176G | 0.0044
63 | C82A A111C A120G A145C C169G | 0.00901

Row | Variant | reverse-splicing fitness
64 | C82A A111C A120G A145C C169G U176A | 0.0239
65 | C82A A111C A120G A145C C169G U176C | 0.0156
66 | C82A A111C A120G A145C C169G U176G | 0.00472
67 | C82A A111C A120G A145C C169U | 0.00846
68 | C82A A111C A120G A145C C169U U176A | 0.0138
69 | C82A A111C A120G A145C C169U U176C | 0.00921
70 | C82A A111C A120G A145C C169U U176G | 0.00467
71 | C82A A111C A120G A145C U176A | 0.0123
72 | C82A A111C A120G A145C U176C | 0.0134
73 | C82A A111C A120G A145C U176G | 0.00486
74 | C82A A111C A120G A145G | 0.0153
75 | C82A A111C A120G A145G C150A | 0.00888
76 | C82A A111C A120G A145G C150A C169A | 0.0099
77 | C82A A111C A120G A145G C150A C169A U176A | 0.0181
78 | C82A A111C A120G A145G C150A C169A U176C | 0.0231
79 | C82A A111C A120G A145G C150A C169A U176G | 0.00667
80 | C82A A111C A120G A145G C150A C169G | 0.00887
81 | C82A A111C A120G A145G C150A C169G U176A | 0.017
82 | C82A A111C A120G A145G C150A C169G U176C | 0.0274
83 | C82A A111C A120G A145G C150A C169G U176G | 0.00656
84 | C82A A111C A120G A145G C150A C169U | 0.00923
